Laboratory results: PMC4224745, “Modulation, Bioinformatic Screening, and Assessment of Small Molecular Peptides Targeting the Vascular Endothelial Growth Factor Receptor” (Cell Biochemistry and Biophysics, 2014)
No end group written: not given here.

The molecules below were run on VEGFR (assay: In vitro receptor competition binding assay with 125I-VEGF165 on A549 cells). Conditions: A549 cells, peptide 0–6,500 nmol/L, 30 min at 4 °C, then 125I-VEGF165 0.37 μg/L for 2 h at 4 °C, γ-counter, duplicate wells; read-out: IC50, competitive VEGFR binding with 125I-VEGF.
Set-up: species or system human
Experimental: A549 cells were cultured in 24-well culture plates at 3 × 10^4 cells/well in duplicate for each treatment. Cultures were maintained at 37 °C in a 5 % CO2 incubator. After 24 h, the culture supernatant was discarded, and cells were washed in PBS, followed by the addition of serum-free culture medium (Hyclone, Logan, UT) before performing an in vitro competitive-binding assay. To each well, VEGF125–136 or optimized peptides were added at the following concentrations: 0, 1.3, 6.5, 32.5, 65, 650, and 6,500 nmol/L. After a 30-min incubation period at 4 °C, 1.85 kBq ^125I-VEGF165 (PerkinElmer,Boston, MA) at a final concentration of 0.37 μg/L was added to each well, and the plates were further incubated for another 2 h at 4 °C. The culture supernatant was discarded, and the cells were washed twice with pre-cooled (4 °C) PBS containing 0.1 % BSA to remove unbound ^125I-VEGF165. The cells were then trypsin digested and quickly filtered through glass fiber filter paper using a multi-channel microfluidic device. Radioactive counts (cpm) on the filter paper were determined using a γ-counter (Chongqing Optical & Electrical Instrument). Peptide competition binding curves were plotted, and IC50 values for each peptide were calculated using SPSS13.0 statistics software.

| Molecule | IC50 |
| --- | --- |
| QKRKRKKSRKKH [compound 15] | 80 ± 7 nM |
| RKRKRKKSRYIVLS [compound 17] | 185 ± 14 nM |

Same assay, conditions: from the IC50 values of the 125I-VEGF competition on A549 cells

| Molecule | Fold increase in affinity for VEGFR relative to VEGF125–136 |
| --- | --- |
| RKRKRKKSRYIVLS [compound 17] | 2.5 fold |

Same assay, conditions: from the IC50 values of the 125I-VEGF competition on A549 cells; listed as QKRKRKKSRKKH

| Molecule | Fold increase in affinity for VEGFR relative to VEGF125–136 |
| --- | --- |
| QKRKRKKSRKKH [compound 15] | 6 fold and ≈ 6 fold |

These molecules were tested on A549 cells (assay: Fluorescence microscopy of rhodamine-conjugated peptides binding to A549 cells). Conditions: rhodamine-conjugated peptides 45 µmol/L, fixed A549 cells, 2 h at 4 °C (method) or 6 h (results).
Assay type: cell-based, human
Experimental: The highest affinity peptides, NO.15 (QKRKRKKSRKKH) and NO.17 (RKRKRKKSRYIVLS), were conjugated with a fluorochrome, and fluorescence microscopy was used to observe binding to A549 cells as follows. A549 cells were plated on coverslips and grown overnight. The cells were then washed three times with PBS and fixed with 4 % paraformaldehyde for 15 min at room temperature. The cells were incubated at 37 °C for 30 min with 2 % BSA to block nonspecific binding, and subsequently washed three times with PBS. Rhodamine-conjugated peptides (45 µmol/L) were added and incubated with the cells for 2 h at 4 °C. After three washes with PBS, fluorescence microscopy (maximum absorption wavelength of 552 nm) was used to observe cellular staining. Unconjugated rhodamine was used as staining control.

| Molecule | Binding sites / fluorescent staining on A549 cells |
| --- | --- |
| rhodamine [unconjugated rhodamine, reference compound] | did not result significant levels of fluorescent staining |
| QKRKRKKSRKKH [compound 15] | plasma membrane and perinuclear cytoplasm |
| RKRKRKKSRYIVLS [compound 17] | plasma membrane and perinuclear cytoplasm |

These molecules were tested against vascular endothelial growth factor receptor (VEGFR) (human (endogenous in A549), UniProt P17948 27-1338) (assay: radioligand binding; competition on A549 cells in 24-well plates, serum-free medium: peptide at 0-6,500 nmol/L for 30 min at 4 °C, then 1.85 kBq 125I-VEGF165 (0.37 μg/L) for 2 h at 4 °C; washed, trypsinised, filtered, γ-counted; IC50 by SPSS13.0). Conditions: one partner purified.
Sequence of vascular endothelial growth factor receptor (VEGFR) (P17948 27-1338): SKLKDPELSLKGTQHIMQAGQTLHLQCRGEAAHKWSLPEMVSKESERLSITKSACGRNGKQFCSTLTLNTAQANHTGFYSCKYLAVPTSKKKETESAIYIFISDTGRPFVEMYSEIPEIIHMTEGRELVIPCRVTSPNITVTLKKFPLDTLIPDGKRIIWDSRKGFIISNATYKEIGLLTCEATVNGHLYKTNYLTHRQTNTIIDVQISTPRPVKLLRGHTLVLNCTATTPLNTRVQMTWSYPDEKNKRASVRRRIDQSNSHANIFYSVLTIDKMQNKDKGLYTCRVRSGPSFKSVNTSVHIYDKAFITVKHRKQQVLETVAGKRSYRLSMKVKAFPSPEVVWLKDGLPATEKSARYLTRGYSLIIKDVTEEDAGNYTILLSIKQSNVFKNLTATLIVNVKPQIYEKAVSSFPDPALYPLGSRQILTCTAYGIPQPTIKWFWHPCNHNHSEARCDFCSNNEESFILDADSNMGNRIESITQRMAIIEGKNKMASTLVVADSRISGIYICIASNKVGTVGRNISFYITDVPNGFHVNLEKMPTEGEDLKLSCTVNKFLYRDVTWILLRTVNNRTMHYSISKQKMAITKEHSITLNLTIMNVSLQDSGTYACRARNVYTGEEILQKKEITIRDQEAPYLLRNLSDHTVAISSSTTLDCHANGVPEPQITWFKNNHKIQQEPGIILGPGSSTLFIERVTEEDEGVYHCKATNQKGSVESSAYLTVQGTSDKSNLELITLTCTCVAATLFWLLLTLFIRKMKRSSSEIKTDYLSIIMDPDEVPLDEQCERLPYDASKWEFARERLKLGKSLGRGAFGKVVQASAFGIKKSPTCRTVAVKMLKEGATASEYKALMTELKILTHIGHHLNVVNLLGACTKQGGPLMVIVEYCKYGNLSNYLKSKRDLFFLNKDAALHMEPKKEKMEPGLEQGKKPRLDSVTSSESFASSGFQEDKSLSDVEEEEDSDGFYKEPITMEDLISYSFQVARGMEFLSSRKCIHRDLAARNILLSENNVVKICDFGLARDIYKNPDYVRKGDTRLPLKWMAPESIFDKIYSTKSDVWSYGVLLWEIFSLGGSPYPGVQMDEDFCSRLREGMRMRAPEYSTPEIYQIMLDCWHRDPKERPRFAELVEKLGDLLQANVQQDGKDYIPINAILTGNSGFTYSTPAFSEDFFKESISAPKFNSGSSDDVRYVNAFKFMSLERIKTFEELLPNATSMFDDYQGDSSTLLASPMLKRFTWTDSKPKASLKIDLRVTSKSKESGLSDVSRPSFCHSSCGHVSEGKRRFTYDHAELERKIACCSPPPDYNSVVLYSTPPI

| Molecule | IC50 |
| --- | --- |
| QFRKRKKSRYKS | 665 ± 38 nM |
| QFRKRKKSRYKH | 252 ± 16 nM |
| FFRKRKKSRYKS | 188 ± 25 nM |
| QFRKRKKSRWKS | 92 ± 9 nM |
| IVFKRKRKKSRYLS | 637 ± 25 nM |
| QFRKRKKSRYKF | 323 ± 17 nM |
| KFRKRKKSRYIV | 273 ± 33 nM |
| KKRKRKKSRKRK | 315 ± 11 nM |

Continued, values first:

| IC50 | Molecule |
| --- | --- |
| 405 ± 20 nM | QKRKRKKSRYRK |
| 602 ± 19 nM | QKRKRKKSRYPK |
| 283 ± 9 nM | RKRKRKKSRKKH |
| 464 ± 12 nM | QKRKRKKSRYKS (also called Control) [VEGF_(125–136)] |
| 694 ± 29 nM | QFRKRKKSRYLS |
| 273 ± 19 nM | QFRKRKKSRYPK |
| 4210 ± 76 nM | QFRKRKKSRYPS |
| 80 ± 7 nM | QKRKRKKSRKKH (also called NO.15) |
| 280 ± 13 nM | QKRKRKKSRYKY |
| 542 ± 16 nM | QKRKRKKSRYPLS |
| 185 ± 14 nM | RKRKRKKSRYIVLS (also called NO.17) |
| 424 ± 37 nM | QHKRKRKKSRIVL |
| 571 ± 40 nM | QKRKRKKSRYKK |
